From patent US20230348571A1 (VANDERBILT UNIVERSITY, published 2023) come the findings set out here.

First the molecules themselves.
T1: Jo-1 (UniProt P12081 2-509)
T1 construct: Kit antigen
T1 sequence: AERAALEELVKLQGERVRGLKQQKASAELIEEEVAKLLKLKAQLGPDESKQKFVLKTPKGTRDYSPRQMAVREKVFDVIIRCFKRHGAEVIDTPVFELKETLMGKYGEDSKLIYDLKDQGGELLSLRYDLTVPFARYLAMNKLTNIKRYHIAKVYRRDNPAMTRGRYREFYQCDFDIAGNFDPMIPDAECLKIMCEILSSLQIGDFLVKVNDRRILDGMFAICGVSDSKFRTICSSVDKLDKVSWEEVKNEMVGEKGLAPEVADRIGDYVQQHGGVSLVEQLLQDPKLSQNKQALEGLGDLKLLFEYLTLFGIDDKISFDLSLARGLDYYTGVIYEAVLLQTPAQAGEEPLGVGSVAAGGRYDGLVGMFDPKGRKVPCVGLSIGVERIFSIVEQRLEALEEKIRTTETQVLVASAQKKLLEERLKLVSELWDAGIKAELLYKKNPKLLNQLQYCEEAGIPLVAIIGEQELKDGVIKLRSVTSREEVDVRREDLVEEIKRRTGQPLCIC

T2: SS-B/La (UniProt P05455 1-408)
T2 construct: Kit antigen
T2 sequence: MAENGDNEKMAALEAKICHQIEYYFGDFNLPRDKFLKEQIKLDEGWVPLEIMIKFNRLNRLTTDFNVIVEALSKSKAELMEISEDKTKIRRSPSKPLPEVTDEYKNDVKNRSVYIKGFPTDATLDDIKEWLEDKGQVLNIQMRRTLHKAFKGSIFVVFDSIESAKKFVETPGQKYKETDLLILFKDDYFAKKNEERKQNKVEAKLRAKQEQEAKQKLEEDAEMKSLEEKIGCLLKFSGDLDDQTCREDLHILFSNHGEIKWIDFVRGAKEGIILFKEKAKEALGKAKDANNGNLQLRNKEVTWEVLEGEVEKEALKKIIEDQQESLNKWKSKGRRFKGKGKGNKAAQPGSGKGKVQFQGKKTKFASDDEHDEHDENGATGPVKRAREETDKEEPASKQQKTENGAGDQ

T3: Scl 70 (UniProt P11387 2-765)
T3 construct: Kit antigen
T3 sequence: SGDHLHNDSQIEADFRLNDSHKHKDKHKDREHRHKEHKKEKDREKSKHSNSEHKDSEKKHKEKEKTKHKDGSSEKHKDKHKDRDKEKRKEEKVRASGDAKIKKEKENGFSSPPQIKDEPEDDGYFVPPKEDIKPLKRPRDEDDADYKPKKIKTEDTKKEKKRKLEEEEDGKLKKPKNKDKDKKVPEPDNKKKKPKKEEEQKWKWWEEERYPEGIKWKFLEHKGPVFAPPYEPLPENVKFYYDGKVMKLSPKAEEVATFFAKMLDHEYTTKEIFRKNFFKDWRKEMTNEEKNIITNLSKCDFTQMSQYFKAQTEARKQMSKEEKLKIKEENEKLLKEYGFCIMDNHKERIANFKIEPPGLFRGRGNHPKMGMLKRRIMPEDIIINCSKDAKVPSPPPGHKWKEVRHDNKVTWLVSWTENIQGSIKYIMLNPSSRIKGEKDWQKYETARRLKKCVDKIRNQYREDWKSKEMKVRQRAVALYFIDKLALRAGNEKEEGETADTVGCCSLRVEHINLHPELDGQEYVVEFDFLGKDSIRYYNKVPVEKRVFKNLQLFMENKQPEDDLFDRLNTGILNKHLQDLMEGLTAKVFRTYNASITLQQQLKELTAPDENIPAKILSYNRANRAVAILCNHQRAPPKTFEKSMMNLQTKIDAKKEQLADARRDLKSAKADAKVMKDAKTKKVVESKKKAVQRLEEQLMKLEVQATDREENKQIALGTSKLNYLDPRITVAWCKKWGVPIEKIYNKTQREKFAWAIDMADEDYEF

T4: centromere B (UniProt P07199 2-599)
T4 construct: Kit antigen
T4 sequence: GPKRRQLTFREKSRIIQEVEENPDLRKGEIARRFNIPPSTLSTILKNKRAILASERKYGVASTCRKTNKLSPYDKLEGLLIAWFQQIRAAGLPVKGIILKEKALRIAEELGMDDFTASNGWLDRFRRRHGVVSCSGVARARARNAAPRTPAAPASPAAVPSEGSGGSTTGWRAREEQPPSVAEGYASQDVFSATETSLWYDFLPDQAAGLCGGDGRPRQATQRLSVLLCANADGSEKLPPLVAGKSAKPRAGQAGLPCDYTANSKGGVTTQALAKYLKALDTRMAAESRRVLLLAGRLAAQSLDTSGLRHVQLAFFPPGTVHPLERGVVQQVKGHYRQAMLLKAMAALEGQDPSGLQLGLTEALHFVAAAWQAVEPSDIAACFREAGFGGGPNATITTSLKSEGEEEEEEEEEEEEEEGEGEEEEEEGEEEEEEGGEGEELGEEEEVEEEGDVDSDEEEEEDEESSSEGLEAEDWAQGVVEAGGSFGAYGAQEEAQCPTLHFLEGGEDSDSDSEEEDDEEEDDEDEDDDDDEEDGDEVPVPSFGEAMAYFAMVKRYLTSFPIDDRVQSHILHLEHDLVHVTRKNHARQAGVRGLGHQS

B1: 46472-1 (antibody, V domains shown)
VH: QVQLVQSGAEVKKDGSSVKVSCEASGGTFSDYAISWVRQAPGQGLEWMGRIIPILGITNYAQQFQTRVTITADKSTSAVYMELSSLRSKDTAIYYCAREVNYYSAFDDWGQGTQVTVSS
VL: EIVMTQSPDTLSVSPGERATLSCRASQNVSSNLAWYQQKPGQAPRLLIYDASTRATGIPARFSGSGSGTEFTLAISSLQSEDFAVYYCQQYNFWWTFGQGTKVDIK
B2: 46472-3 (antibody, V domains shown)
VH: QVQLVESGGGVVQPGRSLRLSCAASGFTFSVYPMHWVRQAPGRGLEWVAVISYDGSNQYYADSVRGRFTISRDNSKNTLYLHMNSLRPEDTAVFYCARDRSATYYGPFDYWGQGTLVTVSS
VL: SSELTQDPAVSVALGQTVRITCQGDSLRSYSASWYQQKPSQAPVLVIYANNNRPSGIPDRFSGSNSGNTASLTITGAQAEDEADYYCNSRDNSGNHPVIFGGGTTLTVL
B3: 46472-2 (antibody, V domains shown)
VH: EVQLVQSGAEVKKPGESLRISCKGSGYRFITYWISWVRQMPGRGLEWMGKIDPSDSSTNYSPSFQGHVAISVDKSFNTAYLQWSRLNTSDTAMYYCAAGPTGYDLLTGQYFPYFNYWAQGTLVTVSS
VL: NFMLTQPHSVSESPGKTVSISCTRSSGSIASKFMQWYQQRPGSAPTILIYEDNLRPSGVPDRFSGSIDTSSNSALLTISGLKTEDEADYYCQSYHGSDVVFGGGTKLTVL
B4: 46472-12 (antibody, V domains shown)
VH: QVQLVQSGAEVQKPGASVKVSCKASGYRFDIFDINWVRQASGQGPEWMGWMNPNSGNTGYAHKFQGRVTMTRDSSTNTAYMELSSLTFEDTAVYYCARDRVERTGNVGFGYYAMDVWGQGTTVIVSS
VL: DIQMTQSPSSLSASVGDRVTITCRASQSITNYLNWYQQRPGKAPRLLIYAASSLQSGVPSRFSGSGSGTDFTLTISSLQPEDFGTFYCQQTYSSPSYTFGQGTKLEMK
B5: 46472-4 (antibody, V domains shown)
VH: EVPLLESGGGLVQPGGSLRLSCVASGFPFSSFALSWVRQAPGKGLEWVSTINTNGGTTYYLDSVKGRFTVSRDNSKNTLFLQMSSLRAEDTAIYYCAKDLLSHSGTYSAGSTFDYWGQGTLVIVSS
VL: DIQMTQSPSSLSASVGDRVTITCRASQSIGVYLNWYQQKPGKAPKLLIHATSNLQSGVPSRFSCSGSGTEFTLTISSLQPEDFATYYCQESYSTNTFGQGTKLEIK
B6: 46472-6 (antibody, V domains shown)
VH: QLQLQESGPGLVKPSETLFLFCSVSGGSISISTHYWEWIRQPPGKGLEWIGSFYSSGTTYYNPSLKGRVTISADTSKSQISLKMSSVTAADTAVYYCARRPQYLLLSMTTGRRHHDFVMDVWGQGTTVTVSS
VL: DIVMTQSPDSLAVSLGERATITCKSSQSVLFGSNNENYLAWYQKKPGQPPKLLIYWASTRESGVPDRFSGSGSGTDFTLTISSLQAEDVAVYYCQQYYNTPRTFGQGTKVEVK

One test has as its target T1, Jo-1. In words: Luminex AtheNA Multi-Lyte ANA-II Plus bead assay.
As for B1, the binding result is reported as “no binding”.

Take B2: the binding result is “no binding”.

As for B3, the binding result was “no binding”.

With B4, the binding result is “no binding”.

With B5, the binding result is “no binding”.

Another test concerns the target T2, SS-B/La. The test can be described thus: Luminex AtheNA Multi-Lyte ANA-II Plus bead assay.
Turning to B6, the binding result is given as “no binding”.

Turning to B1, the binding result is “no binding”.

With B2, the binding result is listed as “no binding”.

In the case of B3, the binding result is given as “no binding”.

On to B4, for which the binding result is on record as “no binding”.

In the case of B5, the binding result is listed as “no binding”.

For a further test, the target named is T3, Scl 70. In words: Luminex AtheNA Multi-Lyte ANA-II Plus bead assay.
In the case of B6, the binding result was “no binding”.

For B1, the binding result is “no binding”.

As to B2, the binding result is “no binding”.

As for B3, the binding result was “no binding”.

For B4, the binding result is on record as “no binding”.

As to B5, the binding result was “no binding”.

Another test addresses T4, centromere B. In words: Luminex AtheNA Multi-Lyte ANA-II Plus bead assay.
As to B6, the binding result was “no binding”.

Regarding B1, the binding result is listed as “no binding”.

Take B2: the binding result is on record as “no binding”.

In the case of B3, the binding result is reported as “no binding”.

With B4, the binding result is “no binding”.

For the molecule B5, the binding result is listed as “no binding”.

A further test concerns the target T5, SARS-CoV-2 NTD (SARS-CoV-2, UniProt P0DTC2 16-305).
T5 construct: domain: NTD; also called the NTD; N-terminal domain
The test can be described thus: ELISA on RBD and NTD proteins (FIG. 15B, FIG. 19B).
For B6, the binding result was “binds”.

The target in a further test is T6, SARS-CoV-2 S1 domain (SARS-CoV-2, UniProt P0DTC2 16-685).
T6 construct: domain: S1; also called the S1 domain
In words: ELISA on SARS-CoV-2 subdomain proteins (FIG. 15A, FIG. 19A).
As for B6, the binding result is reported as “binds”.

With B4, the binding result is recorded as “binds”.

Another test concerns the target T7, SARS-CoV-2 S2 domain (SARS-CoV-2, UniProt P0DTC2 686-1213).
T7 construct: domain: S2; also called the S2 domain
The test is described as above.
In the case of B1, the binding result is given as “binds”.

For B2, the binding result was “binds”.

For B3, the binding result is “binds”.

B5: the binding result is recorded as “binds”.
